Laboratory results published in US8937153B2, “Compositions, methods and uses” (Affibody AB, priority 2007, dated 2015).

What was measured:
[1] = Solubility in aqueous solvents (general statement); format: physicochemical
Description: For example, 30% organic solvent is needed to keep the conjugate in solution.

[2] = biological target: MSA (mouse serum albumin) (Mus musculus, UniProt P07724); assay: Biosensor (Biacore) analysis of ABD variants' binding to mouse serum albumin; settings: N-terminal His6-tagged proteins injected at 25 nM; MSA immobilized 350 RU; qualitative measure of relative affinities
Method: (§1) ABDwt and the twelve ABD variants, all sub-cloned in pAY442 as described above, were expressed in E. coli BL21(DE3) as fusions to an N-terminal His6-tag and purified by IMAC. A colony of each ABD variant was used to inoculate 5 ml TSB medium supplemented with 50 μg/ml kanamycin. The cultures were grown over night at 37° C. The following day, 50 μl of each culture were inoculated separately to 100 ml TSB+YE medium supplemented with 50 μg/ml kanamycin in a 1 liter flask. The cultures were grown at 100 rpm at 37° C. to an OD600 of 0.7-1, after which IPTG was added to a final concentration of 0.5 mM and cells were incubated at room temperature over night at 100 rpm. Cultures were harvested by centrifugation at 8000 g for 5 minutes and pellets were stored in a freezer until protein preparation.
(§2) The His6-tagged proteins were IMAC purified under denatured conditions using Ni-NTA Superflow columns and QIAsoft 4.1, protein/Ni-NTA Superflow 96 denaturing large scale 2 Vac4-24 samples, on a Biorobot 3000 (Qiagen). The buffer was exchanged to PBS using a dialysis cassette (Slide-A-Lyser, 3.5 kDa; Pierce cat. no. 66330) by dialyzing against 5 l PBS for 2 h followed by an additional dialysis over night. […]

[3] = biological target: T1, HSA (human serum albumin) (Homo sapiens, UniProt P02768); assay: Biosensor (Biacore) analysis of ABD variants' binding to human serum albumin (Example 2); settings: N-terminal His6-tagged proteins injected at 25 nM; HSA immobilized 360 RU; qualitative measure of relative affinities
Method: as §1, §2

[4] = biological target: T1, HSA (human serum albumin); assay: Biosensor analysis for binding kinetics to human serum albumin (Example 3); settings: His6-tagged; HSA immobilized 450 RU; values estimated
Method: ABD00003, ABD00053, ABD00239 and ABDwt were expressed in E. coli BL21(DE3) cells as fusions to an N-terminal His6-tag using constructs as described in Example 2, and purified by IMAC. A colony of each ABD variant was used to inoculate 10 ml TSB medium supplemented with 50 μg/ml kanamycin. The cultures were grown over night at 37° C. The following day, 500 μl of each culture were inoculated separately to 500 ml TSB+YE medium supplemented with 50 μg/ml kanamycin in a 5 liter flask. The cultures were grown at 100 rpm and 37° C. to an OD600 of 0.7-1, which was followed by addition of IPTG to a final concentration of 0.5 mM and incubated at room temperature over night. Cultures were harvested by centrifugation at 8000 g for 5 minutes and pellets were stored at −20° C. until protein preparation.
The His6-tagged proteins were IMAC purified under denaturing conditions using His-Gravitrap™ kit (GE Healthcare). The pellets were re-suspended (vortexed) in 20 ml of the denaturation buffer B-7M (100 mM NaH2PO4, 10 mM Tris-Cl, 7 M urea, pH 8) and 8 μl benzonase was added.
Biosensor analysis on a Biacore2000 instrument (Biacore) was performed with HSA (SIGMA, cat. no. A3782-5G) immobilized by amine coupling onto the carboxylated dextran layer on surfaces of a CM-5 chip (research grade; Biacore), according to the manufacturer's recommendations. […] One cell surface on the chip was activated and deactivated and used as reference cell during injections. The purified His6-ABD samples were diluted in HBS-EP (Biacore) to 4, 10, 40, 100 and 400 nM for ABDwt and to 0.2, 0.8, 2, 5 and 20 nM for the selected ABD variants. The samples were injected at a constant flow-rate of 25 μl/min for 10 min, followed by injection of HBS-EP for 3 hours. The surfaces were regenerated with two injections of 20 μl of 5 and 10 mM HCl.

Sequence of MSA (mouse serum albumin) (P07724 25-608): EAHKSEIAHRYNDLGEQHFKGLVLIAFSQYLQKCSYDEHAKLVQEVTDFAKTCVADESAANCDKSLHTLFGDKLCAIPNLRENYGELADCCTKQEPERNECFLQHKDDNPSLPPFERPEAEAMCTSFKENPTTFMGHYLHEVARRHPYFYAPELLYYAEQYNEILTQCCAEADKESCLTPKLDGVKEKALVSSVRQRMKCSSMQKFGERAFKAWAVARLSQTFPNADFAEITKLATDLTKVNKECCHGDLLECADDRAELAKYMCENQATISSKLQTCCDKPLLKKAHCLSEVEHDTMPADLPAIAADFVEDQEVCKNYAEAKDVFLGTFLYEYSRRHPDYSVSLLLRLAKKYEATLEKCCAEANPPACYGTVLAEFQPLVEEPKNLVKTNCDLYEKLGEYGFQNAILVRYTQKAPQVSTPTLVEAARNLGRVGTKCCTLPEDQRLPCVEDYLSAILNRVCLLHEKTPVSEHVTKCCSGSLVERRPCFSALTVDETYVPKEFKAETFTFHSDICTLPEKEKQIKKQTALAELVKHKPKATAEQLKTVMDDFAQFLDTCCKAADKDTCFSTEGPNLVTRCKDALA

Compound | solubility in aqueous solvents [1] | Kd [2] [nM] | Kd [3] [nM] | Kd [4] [nM] | ka to HSA [4] [M/s] | kd to HSA [4] [s⁻¹]
COc1cccc2c1C(=O)c1c(O)c3c(c(O)c1C2=O)C[C@@](O)(C(=O)CO)CC3O[C@H]1CC(NC(=O)OCc2ccc(NC(=O)OCc3ccc(NC(=O)[C@H](CCCNC(N)=O)NC(=O)[C@@H](NC(=O)CCCCCN4C(=O)C=CC4=O)C(C)C)cc3)cc2)C(O)[C@@H](C)O1 (stereo partly drawn) [free linker, Maleimide-Spacelinker-Doxorubicin] | low solubility | – | – | – | – | –
ABDwt | – | 4.9 | 1.5 | 1.2 | 550000 | 0.00065
